Experiments:
[1] = aggregation and purification amounts of deglycosylated antibodies, before and after φ; assay type: physicochemical; conditions: based on 100 ml culture
[2] = molecular target: T1, hclec14-CTLD and hclec14a-ECD interaction (Homo sapiens, UniProt Q86T13); assay: ELISA: interaction of hclec14a-CTLD-Fc-HRP with hclec14a-ECD; assay type: binding; conditions: increasing antibody concentration
T1 construct: hclec14a-CTLD-Fc-HRP was incubated together with purified hclec14a-ECD; hclec14a-ECD (extracellular domain of human clec14a); myc (C)
T1 sequence (Q86T13 33-173 limits assumed): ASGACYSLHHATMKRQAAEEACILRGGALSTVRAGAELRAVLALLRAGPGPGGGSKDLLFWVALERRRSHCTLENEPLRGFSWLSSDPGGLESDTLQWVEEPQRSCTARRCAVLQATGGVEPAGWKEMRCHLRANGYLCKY
Experimental: In addition, hclec14a-CTLD-Fc-HRP was incubated together with purified hclec14a-ECD in the presence of an increasing concentration of parent antibody IgG or deglyco C1 IgG, or in the absence thereof.

[3] = tested on: HUVECs; assay: HUVEC morphology by immunocytochemistry; assay type: cell-based, human
Experimental: In addition, the morphology of HUVEC was evaluated in the presence or absence of deglyco C1 IgG using immunocytochemistry. […] In order to evaluate effects of deglyco C1 IgG on the activity of endothelial cells, which is an initial inflammatory response to a harmful stimulus, HUVECs were treated with deglyco C1 IgG, and expression of an endothelial cell activity marker including VCAM-1 (vascular cell adhesion molecule-1) and ICAM-1 (intercellular cell adhesion molecule-1) was measured to monitor HUVEC activity. Human tumor necrosis factor-alpha (hTNFα) was used as a positive control group for endothelial cell activity.
In order to investigate correlations between tumor angiogenesis and clec14a, first, xenograft tumor models including SNU182 human liver cell or CFPAC-1 human pancreatic cancer cell carcinomas were established, and immunohistochemistry was conducted on commercially available antibodies of clec14a and CD31, which is a well-known endothelial marker protein. Immunohistochemistry was conducted as follows. HUVECs (5×10^4) grown on a 0.1% (w/v) gelatin-coated glass cover slip were incubated in the presence or absence of deglyco C1 IgG for 24 hours at 37° C. […]

[4] = tested on: VEGF-dependent tube formation; assay: VEGF-dependent HUVEC tube formation assay; assay type: cell-based, human; conditions: 20 μg ml^−1, 18 hours
Experimental: (§1) In order to investigate in vitro effects of deglyco C1 IgG on VEGF-dependent angiogenesis, HUVECs were treated with VEGF in the presence or absence of deglyco C1 IgG, and then HUVEC tube formation assay was conducted. 150 μl of Matrigel was added to a 48-well plate and incubated at 37° C. for 30 minutes. HUVEC (10^5) cultured in EGM-2 were collected, seeded on the Matrigel-coated plate and incubated at 37° C. for 18 hours in the presence or absence of clone 1 IgG, parent antibody IgG, deglycosylated clec14a-CTLD IgG or bevacizumab. HUVECs cultured in VEGF-containing EBM (endothelial cell basal medium) were seeded to the Matrigel-coated plate and incubated at 37° C. for 18 hours in the presence or absence of deglyco C1 IgG (20 μg ml^−1).

[5] = tested on: HUVEC tube formation; assay: HUVEC tube formation assay; assay type: cell-based, human; conditions: branches as % of MOCK
Experimental: Genetic mutation introduced during antibody engineering induces unpredicted defects, resulting in deterioration in antibody functions. In order to isolate antibodies for suppressing clec14a-mediated angiogenesis, tube formation and endothelial cell migration assay using human umbilical vein endothelial cells (HUVECs) were conducted in the presence or absence of clone 1 IgG and deglyco C1-C4 IgGs. Among the four types of deglyco IgGs, deglyco C1 IgG was selected as a candidate antibody. […] In addition, it can be seen that deglyco C1 IgG includes desired alterations (N32R/N33C/S34G) in the amino acid sequence in light chain CDR1.
In order to compare in vitro angiogenesis suppression effect between deglyco C1 IgG and bevacizumab, tube formation and migration assay were conducted in the presence or absence of parent antibody IgG, deglyco C1 IgG or bevacizumab as a positive control group.
as §1

[6] = tested on: HEK293F cells transfected with wild-type clec14a; assay: clec14a-mediated cell-cell contact (cell aggregate) assay; assay type: cell-based, human
Description: In order to identify the mechanism by which deglyco C1 IgG acts on angiogenesis, the number of cell aggregates formed from HEK293F cells transfected with wild-type clec14a and cultured in the presence or absence of parent antibody IgG or deglyco C1 IgG was monitored to conduct functional assay on clec14a-mediated cell-cell contacts.
The parent antibody IgG was used as a positive control group to specifically block clec14a-mediated cell-cell contacts.

B1: deglyco C1 IgG: deglycosylated clone 1 IgG; light chain CDR1 TGSSSNIGRCGVT (SEQ ID NO: 2), N32R/N33C/S34G (antibody, V domains shown)
VH: EVQLVESGGGLVQPGGSLRLSCAVSGFTFSGYDMSWIRQAPGKGLEWVAGIYPDGGNTYYADSVKGRFTISRDDSKNTFYLQMNSLRAEDTAVYYCARGATWWVLGPFDYWGQGTLVTVSS
VL: DIQLTQSPSSLSASVGDRVTITCTGSSSNIGRCGVTWYQQKPGKAPKLLIYADSHRPSGVPSRFSGSGSGTDFTLTISSLQPEDFATYYCGAWDDSLSGYVFGQGTKVEIKR
Final um, After φ [1]: 4.821 mg | Final um, Before φ [1]: 4.859 mg | Fraction1, After φ [1]: 0.009 mg | Fraction1, Before φ [1]: 0.011 mg | Fraction2, After φ [1]: 3.763 mg | Fraction2, Before φ [1]: 3.792 mg | Fraction3, After φ [1]: 0.921 mg | Fraction3, Before φ [1]: 0.938 mg | Fraction4, After φ [1]: 0.128 mg | Fraction4, Before φ [1]: 0.129 mg | suppression of interaction between hclec14-CTLD and hclec14a-ECD [2]: directly suppressed | morphology of HUVECs [3]: did not change the morphology | VEGF-dependent tube formation [4]: removed VEGF-dependent tube formation significantly and almost perfectly | inhibitory activity against HUVEC tube formation [5]: most excellent inhibitory activity | inhibitory activity against HUVEC tube formation ([5]; listed as Deglyco C1 IgG): significantly suppressed | inhibition of clec14a-mediated cell-cell contacts (cell aggregates) [6]: inhibitory efficacy

From patent publication US20190309074A1, “DEGLYCOSYLATED ANTIBODY SPECIFICALLY BINDING TO CLEC14A AND USES THEREOF” (WOORI TECHNOLOGIES CORPORATION, priority 2016, published 2019)
